Reference: US20230183328A1

Experiments:
CD32a [1] = molecular target: CD32a (UniProt P12318); assay: CD32a binding assay; formulation F0, 5°C/2M
CD32a [2] = molecular target: CD32a (UniProt P12318); assay: CD32a binding assay; formulation F13, 5°C/2M
CD32a [3] = molecular target: CD32a (UniProt P12318); assay: CD32a binding assay; formulation F15, 5°C/2M
CD32a [4] = molecular target: CD32a (UniProt P12318); assay: CD32a binding assay; formulation F17, 5°C/2M
CD32a [5] = molecular target: CD32a (UniProt P12318); assay: CD32a binding assay; formulation F0, 25°C/1M
CD32a [6] = molecular target: CD32a (UniProt P12318); assay: CD32a binding assay; formulation F0, 25°C/2M
CD32a [7] = molecular target: CD32a (UniProt P12318); assay: CD32a binding assay; formulation F0, initial
CD32a [8] = molecular target: CD32a (UniProt P12318); assay: CD32a binding assay; formulation F18, 5°C/2M
CD32a [9] = molecular target: CD32a (UniProt P12318); assay: CD32a binding assay; formulation F0, 25°C/1M; remark: listed apart in the source
CD32a [10] = molecular target: CD32a (UniProt P12318); assay: CD32a binding assay; formulation F15, initial
CD32a [11] = molecular target: CD32a (UniProt P12318); assay: CD32a binding assay; formulation F17, initial
[12] = molecular target: antigen of the Antigen binding ELISA (not named; BAN2401 is described as binding human Aβ protofibrils) (UniProt P05067); assay: antigen binding ELISA; formulation F0, 5°C/2M
CD32a [13] = molecular target: CD32a (UniProt P12318); assay: CD32a binding assay; formulation F13, 25°C/1M
CD32a [14] = molecular target: CD32a (UniProt P12318); assay: CD32a binding assay; formulation F13, 25°C/2M
CD32a [15] = molecular target: CD32a (UniProt P12318); assay: CD32a binding assay; formulation F13, initial
CD32a [16] = molecular target: CD32a (UniProt P12318); assay: CD32a binding assay; formulation F15, 25°C/1M
CD32a [17] = molecular target: CD32a (UniProt P12318); assay: CD32a binding assay; formulation F15, 25°C/2M
CD32a [18] = molecular target: CD32a (UniProt P12318); assay: CD32a binding assay; formulation F17, 25°C/1M
CD32a [19] = molecular target: CD32a (UniProt P12318); assay: CD32a binding assay; formulation F17, 25°C/2M
CD32a [20] = molecular target: CD32a (UniProt P12318); assay: CD32a binding assay; formulation F18, initial
CD32a [21] = molecular target: CD32a (UniProt P12318); assay: CD32a binding assay; formulation F18, 25°C/1M
CD32a [22] = molecular target: CD32a (UniProt P12318); assay: CD32a binding assay; formulation F18, 25°C/2M
CD32a [23] = molecular target: CD32a (UniProt P12318); assay: CD32a binding assay; formulation F18, initial; remark: listed apart in the source
[24] = molecular target: antigen of the Antigen binding ELISA (not named; BAN2401 is described as binding human Aβ protofibrils) (UniProt P05067); assay: antigen binding ELISA; formulation F0, initial
[25] = molecular target: antigen of the Antigen binding ELISA (not named; BAN2401 is described as binding human Aβ protofibrils) (UniProt P05067); assay: antigen binding ELISA; formulation F13, 5°C/2M
[26] = molecular target: antigen of the Antigen binding ELISA (not named; BAN2401 is described as binding human Aβ protofibrils) (UniProt P05067); assay: antigen binding ELISA; formulation F17, 5°C/2M
[27] = molecular target: antigen of the Antigen binding ELISA (not named; BAN2401 is described as binding human Aβ protofibrils) (UniProt P05067); assay: antigen binding ELISA; formulation F0, 25°C/1M
[28] = molecular target: antigen of the Antigen binding ELISA (not named; BAN2401 is described as binding human Aβ protofibrils) (UniProt P05067); assay: antigen binding ELISA; formulation F0, 25°C/2M
[29] = molecular target: antigen of the Antigen binding ELISA (not named; BAN2401 is described as binding human Aβ protofibrils) (UniProt P05067); assay: antigen binding ELISA; formulation F15, 5°C/2M
[30] = molecular target: antigen of the Antigen binding ELISA (not named; BAN2401 is described as binding human Aβ protofibrils) (UniProt P05067); assay: antigen binding ELISA; formulation F18, 5°C/2M
[31] = molecular target: antigen of the Antigen binding ELISA (not named; BAN2401 is described as binding human Aβ protofibrils) (UniProt P05067); assay: antigen binding ELISA; formulation F17, initial
[32] = molecular target: antigen of the Antigen binding ELISA (not named; BAN2401 is described as binding human Aβ protofibrils) (UniProt P05067); assay: antigen binding ELISA; formulation F13, 25°C/1M
[33] = molecular target: antigen of the Antigen binding ELISA (not named; BAN2401 is described as binding human Aβ protofibrils) (UniProt P05067); assay: antigen binding ELISA; formulation F13, 25°C/2M
[34] = molecular target: antigen of the Antigen binding ELISA (not named; BAN2401 is described as binding human Aβ protofibrils) (UniProt P05067); assay: antigen binding ELISA; formulation F13, initial
[35] = molecular target: antigen of the Antigen binding ELISA (not named; BAN2401 is described as binding human Aβ protofibrils) (UniProt P05067); assay: antigen binding ELISA; formulation F15, 25°C/1M
[36] = molecular target: antigen of the Antigen binding ELISA (not named; BAN2401 is described as binding human Aβ protofibrils) (UniProt P05067); assay: antigen binding ELISA; formulation F15, 25°C/2M
[37] = molecular target: antigen of the Antigen binding ELISA (not named; BAN2401 is described as binding human Aβ protofibrils) (UniProt P05067); assay: antigen binding ELISA; formulation F15, initial
[38] = molecular target: antigen of the Antigen binding ELISA (not named; BAN2401 is described as binding human Aβ protofibrils) (UniProt P05067); assay: antigen binding ELISA; formulation F17, 25°C/1M
[39] = molecular target: antigen of the Antigen binding ELISA (not named; BAN2401 is described as binding human Aβ protofibrils) (UniProt P05067); assay: antigen binding ELISA; formulation F17, 25°C/2M
[40] = molecular target: antigen of the Antigen binding ELISA (not named; BAN2401 is described as binding human Aβ protofibrils) (UniProt P05067); assay: antigen binding ELISA; formulation F18, initial
[41] = molecular target: antigen of the Antigen binding ELISA (not named; BAN2401 is described as binding human Aβ protofibrils) (UniProt P05067); assay: antigen binding ELISA; formulation F18, 25°C/1M
[42] = molecular target: antigen of the Antigen binding ELISA (not named; BAN2401 is described as binding human Aβ protofibrils) (UniProt P05067); assay: antigen binding ELISA; formulation F18, 25°C/2M
CD32a [43] = molecular target: CD32a (UniProt P12318); assay: CD32a binding assay; formulation F15, 25°C dark/7 D
CD32a [44] = molecular target: CD32a (UniProt P12318); assay: CD32a binding assay; formulation F18, 25°C dark/7 D
[45] = molecular target: antigen of the Antigen binding ELISA (not named; BAN2401 is described as binding human Aβ protofibrils) (UniProt P05067); assay: antigen binding ELISA; formulation F15, 25°C dark/7 D
[46] = molecular target: antigen of the Antigen binding ELISA (not named; BAN2401 is described as binding human Aβ protofibrils) (UniProt P05067); assay: antigen binding ELISA; formulation F18, 25°C dark/7 D
CD32a [47] = molecular target: CD32a (UniProt P12318); assay: CD32a binding assay; formulation F15, 25°C 1000 lx/7 D
CD32a [48] = molecular target: CD32a (UniProt P12318); assay: CD32a binding assay; formulation F18, 25°C 1000 lx/7 D
[49] = molecular target: antigen of the Antigen binding ELISA (not named; BAN2401 is described as binding human Aβ protofibrils) (UniProt P05067); assay: antigen binding ELISA; formulation F15, 25°C 1000 lx/7 D
[50] = molecular target: antigen of the Antigen binding ELISA (not named; BAN2401 is described as binding human Aβ protofibrils) (UniProt P05067); assay: antigen binding ELISA; formulation F18, 25°C 1000 lx/7 D
CD32a [51] = molecular target: CD32a (UniProt P12318); assay: CD32a binding assay; formulation F15, freeze-thaw 3 cycles
CD32a [52] = molecular target: CD32a (UniProt P12318); assay: CD32a binding assay; formulation F18, freeze-thaw 3 cycles
[53] = molecular target: antigen of the Antigen binding ELISA (not named; BAN2401 is described as binding human Aβ protofibrils) (UniProt P05067); assay: antigen binding ELISA; formulation F15, freeze-thaw 3 cycles
[54] = molecular target: antigen of the Antigen binding ELISA (not named; BAN2401 is described as binding human Aβ protofibrils) (UniProt P05067); assay: antigen binding ELISA; formulation F18, freeze-thaw 3 cycles

CD32a, sequence (P12318 36-218): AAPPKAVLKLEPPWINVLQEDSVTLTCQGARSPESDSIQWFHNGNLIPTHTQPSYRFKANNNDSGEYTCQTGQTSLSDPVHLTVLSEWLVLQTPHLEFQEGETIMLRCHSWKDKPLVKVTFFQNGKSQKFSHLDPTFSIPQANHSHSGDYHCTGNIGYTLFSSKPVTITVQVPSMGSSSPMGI

BAN2401 (antibody)
FcR (Binding assay (CD32a)) (CD32a [1]): 93.8%
FcR (Binding assay (CD32a)) (CD32a [2]): 100%
FcR (Binding assay (CD32a)) (CD32a [3]): 99%
FcR (Binding assay (CD32a)) (CD32a [4]): 103%
FcR (Binding assay (CD32a)) (CD32a [5]): 95.3%
FcR (Binding assay (CD32a)) (CD32a [6]): 93.5%
FcR (Binding assay (CD32a)) (CD32a [7]): 91.7%
FcR (Binding assay (CD32a)) (CD32a [8]): 94.7%
FcR (Binding assay (CD32a)) (CD32a [9]): 95.5%
FcR (Binding assay (CD32a)) (CD32a [10]): 109%
FcR (Binding assay (CD32a)) (CD32a [11]): 117%
ELISA (Antigen binding ELISA) [12]: 103%
FcR (Binding assay (CD32a)) (CD32a [13]): 99.4%
FcR (Binding assay (CD32a)) (CD32a [14]): 102%
FcR (Binding assay (CD32a)) (CD32a [15]): 101%
FcR (Binding assay (CD32a)) (CD32a [16]): 98.3%
FcR (Binding assay (CD32a)) (CD32a [17]): 102%
FcR (Binding assay (CD32a)) (CD32a [18]): 104%
FcR (Binding assay (CD32a)) (CD32a [19]): 105%
FcR (Binding assay (CD32a)) (CD32a [20]): 92.4%
FcR (Binding assay (CD32a)) (CD32a [21]): 91.9%
FcR (Binding assay (CD32a)) (CD32a [22]): 92.9%
FcR (Binding assay (CD32a)) (CD32a [23]): 106%
ELISA (Antigen binding ELISA) [24]: 101%
ELISA (Antigen binding ELISA) [25]: 104%
ELISA (Antigen binding ELISA) [26]: 126%
ELISA (Antigen binding ELISA) [27]: 103%
ELISA (Antigen binding ELISA) [28]: 91.8%
ELISA (Antigen binding ELISA) [29]: 123%
ELISA (Antigen binding ELISA) [30]: 118%
ELISA (Antigen binding ELISA) [31]: 107%
ELISA (Antigen binding ELISA) [32]: 104%
ELISA (Antigen binding ELISA) [33]: 107%
ELISA (Antigen binding ELISA) [34]: 109%
ELISA (Antigen binding ELISA) [35]: 104%
ELISA (Antigen binding ELISA) [36]: 96.9%
ELISA (Antigen binding ELISA) [37]: 102%
ELISA (Antigen binding ELISA) [38]: 107%
ELISA (Antigen binding ELISA) [39]: 102%
ELISA (Antigen binding ELISA) [40]: 108%
ELISA (Antigen binding ELISA) [41]: 97%
ELISA (Antigen binding ELISA) [42]: 97.8%
FcR (Binding assay (CD32a)) (CD32a [43]): 104%
FcR (Binding assay (CD32a)) (CD32a [44]): 105%
ELISA (Antigen binding ELISA) [45]: 107%
ELISA (Antigen binding ELISA) [46]: 105%
FcR (Binding assay (CD32a)) (CD32a [47]): 118%
FcR (Binding assay (CD32a)) (CD32a [48]): 109%
ELISA (Antigen binding ELISA) [49]: 101%
ELISA (Antigen binding ELISA) [50]: 109%
FcR (Binding assay (CD32a)) (CD32a [51]): 108%
FcR (Binding assay (CD32a)) (CD32a [52]): 106%
ELISA (Antigen binding ELISA) [53]: 108%
ELISA (Antigen binding ELISA) [54]: 104%
